Source: PMC3785480, “BB0347, from the Lyme Disease Spirochete Borrelia burgdorferi, Is Surface Exposed and Interacts with the CS1 Heparin-Binding Domain of Human Fibronectin” (PLoS ONE, 2013)

Biological target: T1, recombinant BB0347 (Borrelia burgdorferi)
T1 construct: also called rBB0347; source: E. coli Rosetta(DE3)pLysS, pET200, purified (MagneHis nickel particles, dialysed into PBS)
Experiment: ELISA; FnHBD assay: coated plate treated with varying concentrations of rBB0347, 37°C, 1.5 h; detected with rabbit polyclonal anti-BB0347; KD = concentration of added protein at half-maximal binding, assuming saturation
Settings: both partners purified

B1: peptide fragment containing the CS1 heparin-binding domain (HBD) of human Fn (domain or fragment)
chain: AIPAPTDLKFTQVTPTSLSAQWTPPNVQLTGYRVRVTPKEKTGPMKEINLAPDSSSVVVSGLMVATKYEVSVYALKDTLTSRPAQGVVTTLENVSPPRRARVTDATETTITISWRTKTETITGFQVDAVPANGQTPIQRTIKPDVRSYTITGLQPGTDYKIYLYTLNDNARSSPVVIDASTAIDAPSNLRFLATTPNSLLVSWQPPRARITGYIIKYEKPGSPPREVVPRPRPGVTEATITGLEPGTEYTIYVIALKNNQKSEPLIGRKKT
Kd: 180 ± 14 nM
